Values quoted from earlier work in patent US6191103A, “Methods for enhancing thrombolysis in a mammal” (priority 1997, dated 2001).

Conditions: in vivo

**Q.** For “tPA: tissue-type plasminogen activator, fibrinolytic agent”, which plasma half-life is on record?
**A.** The plasma half-life was “around 5 minutes”.
